# Data as given in the DeepSol protein solubility set.
# Assay: soluble on expression in E. coli; label from the status in PepcDB or PDB records
row,Sequence,soluble on expression in E. coli
1,MADKLFSIRNYFFLGSYQSCIGEALKFSSKNEEEKQEKDVYLYRSYIAQGQAFIPLKEIPAATKSADLAAVRRYAEFRNNPAAKKKILAEVQEEVASRNIKSEIAAVLAATILNEADLSQDAFRAVSRFEGLEARASKVFILIKMNKRKLAIGEVKKMNQIDEDATLSQLANALVTSFGASGKVKDALYIYSEMSDKYGRTTDLEMHQAVVSILTQDYAAAEELLESALERDNKDADVLINSIVSAQLNEKDDDVVERFISQLKHEHPNHPWVIDFNEKEAEFDRVASDSRA,not soluble
2,MADNINESEIIERLNSAPSVRGFFIATVDVFNESIDGLIQRIFRKDNFAVQSVVGPLLQDSGPLGDLSVRLKLLFGLGVLPDDIYHDIEDIIKLKNHLNSDASDYEFTDPNILEPIKKLHLVKKMGMVQLEVNEPDDDIDLEFYQLQLQRQQQIIKSGLSLAIVEICNELGK,soluble
3,MADPPPNPSSVPPNGNLTGTPSAGNAAAVAPMAHEKDRQSKEGDEIVTKSGKKYKLGPVLGEGGYGTVFLSQDDDIKIAVIAVSCFPYIIVQNEVWFKEQKKHHVIHVVHNFSSKLLVNTTKYSRSSTVMRFNLHLITRKSTNYLWRLEKNANFVIVKTGIGKMKQSRPLSPQSLHSLIKNFAPRLTNSQKRRVLVLIFLISWSPISLPFLCTSISHHELIGINVLIKKIYVLQYFLNI,not soluble
4,MADRQLLHTAHIPVRWGDMDSYGHVNNTLYFQYLEEARVAWFETLGIDLEGAAEGPVVLQSLHTYLKPVVHPATVVVELYAGRLGTSSLVLEHRLHTLEDPQGTYGEGHCKLVWVRHAENRSTPVPDSIRAAIA,soluble
5,MAEARPDSLTRSRAAKPAGEGAAFSPLYRQIKELLVQSLDRGEWKPGELIPSEIDLAARFQVSQGTVRKAVDELAAEHLLLRRQGKGTFVATHHEARVRYRFLRLAPDEEGEGGRAESRILECRRLRAPAEIARALELRAGETVVTIRRQLSMNHMPTVIDDLWLPGTHFRGLTLELLTASKAPLYGLFESEFGVSMVRADEKLRAVAASPEIAPLLGVEPGRPLLQVDRISYTYGDRPMEVRRGLYLTDHYHYRNSLN,soluble
6,MAEDEIVVEEEQSQPQEITPVPPSSSSSPSLVVEDDDEMKLKHLEFIQVAAVYFAACFSTLYELAKDNAGPLKLGVENIEDCVRTVLAPLYEKFHDVPFKLLLFVDRKVDDVFFDVETYVPSLVKQASSQALTVATEVQRTGVVDTTKSIARSVRDKYEPAAEYYAATLWRLLNQLPLFPEVAHLVIPTAFYWSEKYNDAVRYVGDRDYFGAEYLPMIPIEKISDILEQDQCRAD,not soluble
7,MAEEIQMYDDAASVAFIRNFIPQELKEKMTDDDIVYIVDLIYDFYESRGFMDMAEDSEETVEVDEDELVEYVVKNAARDEVGHFSADEIRFVVQGELEYCESINLFEED,not soluble
8,MAELISKEGNKVEFKVSVPAAEVNRAYDQVWAGLARDVRVPGFRPGKAPRKVIENRVGKGYVESQVRDRLLETHYSQGLRELGLNLVDATVDPQDVQSGQAFEFTVKGETYP,soluble
9,MAENRNRKPSDSQVDAIKVPPHSLEAEQSVIGGLLLDNERWDTVAERVVASDFYSRPHRLIFEGVKTILESGKPLDLITLSEHLERHEQLEDVGGFAYLADLAKNTPSAANINAYADIVAERAIVRGLIGVANEIADAGYDPQGRSSEDLIDMAESKVFAIAESRTSENEGPQNVDNILEKTLERIELLYKTPQDGVTGVDTGFTDLNKKTAGLQGSDLVIVAARPSMGKTTFAMNLCENAAMQQDKPVLIFSLEMPAEQLMMRMLASLSRVDQTKIRTGQLDDEDWARISSTMGILMQKKNMYIDDSSGLTPTEVRSRARRVAREHGGLSMIMVDYLQLMRVPSLTDNRTLEIAEISRSLKALAKELNVPVVALSQLNRSLEQRADKRPVNSDLRESGSIEQDADLIMFIYRDEVYHPDSPYKGTAEIIIGKQRNGPIGSVRLTFQGQHSRFDNYAGPAFDIDDE,not soluble
10,MAEQISHKKSLRVSSLNKDRRLLLREFYNLENEPNKGRQEARIGEKASEAHSGEEQVTDVNIDTEANTEKPVKDDELSATEEDLKEGSEDAEEEIKNLPFKRLVQIHNKLLGKETETNNSIKNTIYENYYDLIKVNDLLKEITNANEDQINKLKQTVESLIKEL,soluble
11,MAESRRKYYFPDVTDEQWNDWHWQVLNRIETLDQLKKYVTLTAEEEEGVKESLKVLRMAITPYYLSLIDPENPNCPIRKQAIPTHQELVRAPEDQVDPLSEDEDSPVPGLTHRYPDRVLFLITDKCSMYCRHCTRRRFAGQKDASSPSERIDRCIDYIANTPTVRDVLLSGGDALLVSDERLEYILKRLREIPHVEIVRIGSRTPVVLPQRITPQLVDMLKKYHPVWLNTHFNHPNEVTEEAVEACERMANAGIPLGNQTVLLRGINDCTHVMKRLVHLLVKMRVRPYYIYVCDLSLGIGHFRTPVSKGIEIIENLRGHTSGYAVPTFVVDAPGGGGKIPVMPNYVVSQSPRHVVLRNYEGVITTYTEPENYHEECDCEDCRAGKHKEGVAALSGGQQLAIEPSDLARKKRKFDKN,soluble
12,MAEVERQDKYLRQRNKYRFHIIPDGNCLYRAVSKTVYGDQSLHRELREQTVHYIADHLDHFSPLIEGDVGEFIIAAAQDGAWAGYPELLAMGQMLNVNIHLTTGGRLESPTVSTMIHYLGPEDSLRPSIWLSWLSNGHYDAVFDHSYPNPEYDNWCKQTQIQKKRDEELAKSMAISLSKMYIEQNACS,soluble
13,MAEVLMYGLSTCPHCKRTLEFLKREGVDFEVIWIDKLEGEERKKVIEKVHSISGSYSVPVVVKGDKHVLGYNEEKLKELIRG,soluble
14,MAFAIASALTSTLTLSTSRVQNPTQRRPHVASTSSTGGRLMRERLVVVRAGKEVSSVCEPLPPDRPLWFPGSSPPEWLDGSLPGDFGFDPLGLGSDPDTLKWFAQAELIHSRWAMLAVTGIIIPECLERLGFIENFSWYDAGSREYFADSTTLFVAQMVLMGWAEGRRWADLIKPGSVDIEPKYPHKVNPKPDVGYPGGLWFDFMMWGRGSPEPVMVLRTKEIKNGRLAMLAFLGFCFQATYTSQDPIENLMAHLADPGHCNVFSAFTSH,soluble
15,MAFDISAQDPFSILIAGVDSREDTHAGRSDTLIVLTVNPKEESIKMLSIPRDTRTEIVGRGTDDKINHAYAFGGAQMTIDTVENFLDIPIDHYVSINMDGFTQLVDALGGVSVENSFAFSQNGYQFEEGEIFLETGDEALAYARMRKQDSRGDFGRNDRQRQIVEAVIKQSAQFSSITKAGAILDAVGESVRTDLQLDGMWELQSNYRGAAKNIEQLEITGEGTRINNIYYLIIPQEEIARVQGELKSHLELSLEHHHHHH,soluble
16,MAFGRRTGKDGGKRKAGHAPVQPADEHVRPEDTVVASAAAASGVEDQEELQGPFDIDDFDDPSVAVLARLDLGSVLIPMPAAGQVQVELTESGVPSAVWVITPNGRYSIAAYAAPKTGGLWREVAGELADSLRKDSAKVSIKDGPWGREVIGIAAGVVRFIGVDGYRWMIRCVVNGPQETVDALTEEAREALADTVVRRGDTPLPVRTPLPVHLPEPMAAQLREAAAAQADTQRQAAAGVARRGAQGSAMQQLRSTTGG,soluble
17,MAFHMPLKELQPVDTSLPEHVVKGAVVIDKEFTIWNHRAVIPSNALHTVFITINLLEQKLTDVVKMAARSMNLSEDDSYGLMADKPKRFITDDNLNSLGSGFILTLCASPDHYVKRITEILTEGNNISQMENAVKTLDEFSLDPALIEAFYRCSSLELLFSLIRDDRVCMSSTLLSTCLRALSSMLELAVGDFTWKSVPNDVVVSMASLVTGKAKREEANTLLAALQMLEQLVIGDDTTRDWILEEVPIETLIRHVEKSDERIALCALSLMNSMIRRCPDDEKRFELIKSLEVVPFRNAVHSSLLRGGGGVRNLNAIEQLVEVQRSLISAYETSPPTDAEVQKILDIESSEDVSEEIREMWKSQIGEHRCGRLAAISMVQFAEKSPQDLRMLISENTMRIEGGKWQLIPMWMRCCDIAAELFRVIPGRDELDRLIVVLFSTETPFPAVFACIVHLFHRTWREMQAKGGEMEKVACVVLEQLRHVLKRREIQDVEELSADLETFSYRAMQEIWREEQLGKENIQLHSEAVIQLKSKLRPKMEELVRINHLNYLKLGAVFRKPQKSKSLAKLAFWHWKLDASEKMLTITGCDGENYVEGVQRDDIRQVWIKDIADVTNNDEIDRKASSSRFTSSPSTQMLRGIRVQLKTTNDMKEGEVLMALTSDETQSVIWLEGLAELIGSKAVKSETDAMVERMLKMELRVRLLNVKLTNPEEKPEIPPIPDDIKSFISKF,not soluble
18,MAFNKVKIVKGSGGWGGPLIIEPTEKKNKVVYVTGGAKPETAVKIAELTGCELIDGFSQGVKDDEIACVIINCGGTLRCGIYPQKKIPTINIMKTGKSGPLAMFIKEDIYVSGVKPTNVEQ,not soluble
19,MAGDPMAHITRFEAPWFLMISKKQYKWTVRPNAGPHSIEKSIPLAVVIRDYLKLAGTIREAKHIIFDGKVLVDGKVRKDYKYPVGLMDIVSIPSADLYFRVLPDNVRFMRFSKISADEARYKYVRIINKTTIKEGRIQLNLEDGRNILVDKETAKNFKTLMTLKIELPSQQILDSFTISERSYAIFVGGRNVGIHGIVKNINLSKFKSRKYSVITLESRDGNTYQTNIMNVMSIGREKSDLRVDLEHHHHHH,soluble
20,MAGDPMIIYRQYHHEGAPVYEIITKTFQHVSIKCDDSFSDTEIFKLLSLLQDDIDHMKVSLEHHHHHH,not soluble
21,MAGDPMQADLFDAEQTGIRTRLGEQAWVLRGFALPWLDALLPALRAVIAQAPLRHMATPGGFTMSVALTNCGALGWTTDAHGYRYRPDDPQTGLPWPPMPQAFAQLAREAAAQAGFAGFDPDACLVNRYAPGARMSLHQDKNERDFGAPIVSVSLGLPAMFLFGGARRDERPARIPLLHGDVAVWGGVDRLRYHGVMPLAEGQHPLLGRQRINFTLRRAGALEHHHHHH,not soluble
22,MAGDPMSATETITTNARVLGADPLVKDGFGEEDMLTLVLPYIKTAREGVLRLGELLETYGTYESNGIAFADTEEIWWLKTIGGHNWIARRVPDDAYVTNPNQLGIDHYEFENPDDYLASPDIRDFINKHHLDLTYSNEHFNPRYAFGSQRDKDHHYNTPRARAMLEHHHHHH,not soluble
23,MAGDPMTELEMHLLNALEQLQQDYTQRLKDWESPFTDLQHMFELTRQENGQLREQCDDLSQQVQRLAGQVDHLSRLFITNSRLEHHHHHH,not soluble
24,MAGDPMTEQDIYKLLADGERVTLECKKAQNGVPNSLWETYSAFANTNGGILLLGVYENVAEKDSLMRFTITGVEDADKIRKDLWNTINSREKVNVNLLHDEDVQTISVNGKEVIAINVPRADYNLRPVYINNNLMRGTYRRNHEGDYHCTEQMIKMMVRDAYEDGNDRMFLEYYTMDDIDIPTLEGYRVMFKTNNPEHIWNSLDHKEFLMQLGGYVVNRKDGTEGLTIAGLLMFGKGLPVRERFDYLRMDYIDKSNLIGDQRYSDRLTYDGTWENNLFNFIRMVVPRLTRDIPRPFQMDGIIRKDDTPQHKAVREAFTNMIIHADLMLNGLLRVEKYDDRFVLSNPGLLKLPVEQIYAGGESKARNQRMQHMLRMIGYGENLGSGFPLILSAWNEKHWLKPELVEQPELMQVKLILHIENRVYVTKDVTKDVTKELTERQQIILEFMQADGTITISEMSQKTNVTERTIKRDIESLTEKGILSREGGRKEGRWVIRKILEHHHHHH,soluble
25,MAGDPMTKQEKIQKTITFVKHILEKDASGHDWYHIERVHKMAISLSEQEGGNRFIIEMAALLHDVADEKLNESEEAGMKKVSDWLEELRVEEEESKHILHIIANMSYKGGHGGTVESLEGKIVQDADRLDALGAIGIARTFAYGGAKGRLMYDPTIPPREEMTKEEYRKNNDPSLNHFYEKLLKLKDLMNTNAAKQEAEIRHLYMEQFIEQFMKEWNAQILEHHHHHH,soluble
